Measurements: patent US20170008943A1 (Novo Nordisk, published 2017)
*1 amine or outer side, *2 acyl side, *3 side chain or, on linkers, in order; H or OH if unused. Side-chain parts run from the residue outwards. [ ]: non-standard residue; d: D form. The star is where a group is joined. γGlu = O=C(O)[C@H](CCC(=O)[*:2])N[*:1]; Desaminohistidyl = O=C(CCc1c[nH]cn1)*

B1: N^ε24-[(4S)-4-[[(4S)-4-[[(4S)-4-[[(4S)-4-acetamido-4-carboxybutanoyl]amino]-4-carboxybutanoyl]amino]-4-carboxybutanoyl]amino]-4-carboxybutanoyl]-[Imp1, His3, … (peptide)
peptide: [Desaminohistidyl]SHGTFTSDYSKYLDLRRAQEFVK([γGlu-γGlu-γGlu-γGlu-Ac])WLLST-OH
SMILES: CC(=O)N[C@@H](CCC(=O)N[C@@H](CCC(=O)N[C@@H](CCC(=O)N[C@@H](CCC(=O)NCCCC[C@H](NC(=O)[C@@H](NC(=O)[C@H](Cc1ccccc1)NC(=O)[C@H](CCC(=O)O)NC(=O)[C@H](CCC(N)=O)NC(=O)[C@H](C)NC(=O)[C@H](CCCNC(=N)N)NC(=O)[C@H](CCCNC(=N)N)NC(=O)[C@H](CC(C)C)NC(=O)[C@H](CC(=O)O)NC(=O)[C@H](CC(C)C)NC(=O)[C@H](Cc1ccc(O)cc1)NC(=O)[C@H](CCCCN)NC(=O)[C@H](CO)NC(=O)[C@H](Cc1ccc(O)cc1)NC(=O)[C@H](CC(=O)O)NC(=O)[C@H](CO)NC(=O)[C@@H](NC(=O)[C@H](Cc1ccccc1)NC(=O)[C@@H](NC(=O)CNC(=O)[C@H](Cc1c[nH]cn1)NC(=O)[C@H](CO)NC(=O)CCc1c[nH]cn1)[C@@H](C)O)[C@@H](C)O)C(C)C)C(=O)N[C@@H](Cc1c[nH]c2ccccc12)C(=O)N[C@@H](CC(C)C)C(=O)N[C@@H](CC(C)C)C(=O)N[C@@H](CO)C(=O)N[C@H](C(=O)O)[C@@H](C)O)C(=O)O)C(=O)O)C(=O)O)C(=O)O
notes: Imp written X under substitutions
B2: N^ε28-[(4S)-4-[[(4S)-4-[[(4S)-4-[[(4S)-4-acetamido-4-carboxybutanoyl]amino]-4-carboxybutanoyl]amino]-4-carboxybutanoyl]amino]-4-carboxybutanoyl]-[Imp1, His3, … (peptide)
peptide: [Desaminohistidyl]SHGTFTSDYSKYLESRRAQEFVQWLLK([γGlu-γGlu-γGlu-γGlu-Ac])T-OH
SMILES: CC(=O)N[C@@H](CCC(=O)N[C@@H](CCC(=O)N[C@@H](CCC(=O)N[C@@H](CCC(=O)NCCCC[C@H](NC(=O)[C@H](CC(C)C)NC(=O)[C@H](CC(C)C)NC(=O)[C@H](Cc1c[nH]c2ccccc12)NC(=O)[C@H](CCC(N)=O)NC(=O)[C@@H](NC(=O)[C@H](Cc1ccccc1)NC(=O)[C@H](CCC(=O)O)NC(=O)[C@H](CCC(N)=O)NC(=O)[C@H](C)NC(=O)[C@H](CCCNC(=N)N)NC(=O)[C@H](CCCNC(=N)N)NC(=O)[C@H](CO)NC(=O)[C@H](CCC(=O)O)NC(=O)[C@H](CC(C)C)NC(=O)[C@H](Cc1ccc(O)cc1)NC(=O)[C@H](CCCCN)NC(=O)[C@H](CO)NC(=O)[C@H](Cc1ccc(O)cc1)NC(=O)[C@H](CC(=O)O)NC(=O)[C@H](CO)NC(=O)[C@@H](NC(=O)[C@H](Cc1ccccc1)NC(=O)[C@@H](NC(=O)CNC(=O)[C@H](Cc1c[nH]cn1)NC(=O)[C@H](CO)NC(=O)CCc1c[nH]cn1)[C@@H](C)O)[C@@H](C)O)C(C)C)C(=O)N[C@H](C(=O)O)[C@@H](C)O)C(=O)O)C(=O)O)C(=O)O)C(=O)O
notes: as for B1
B3: N^ε24-[(4S)-4-[[(4S)-4-[[(4S)-4-[[(4S)-4-acetamido-4-carboxybutanoyl]amino]-4-carboxybutanoyl]amino]-4-carboxybutanoyl]amino]-4-carboxybutanoyl]-[Imp1, His3, … (peptide)
peptide: [Desaminohistidyl]SHGTFTSDYSKYLDLRRAQDFVK([γGlu-γGlu-γGlu-γGlu-Ac])WLLST-OH
SMILES: CC(=O)N[C@@H](CCC(=O)N[C@@H](CCC(=O)N[C@@H](CCC(=O)N[C@@H](CCC(=O)NCCCC[C@H](NC(=O)[C@@H](NC(=O)[C@H](Cc1ccccc1)NC(=O)[C@H](CC(=O)O)NC(=O)[C@H](CCC(N)=O)NC(=O)[C@H](C)NC(=O)[C@H](CCCNC(=N)N)NC(=O)[C@H](CCCNC(=N)N)NC(=O)[C@H](CC(C)C)NC(=O)[C@H](CC(=O)O)NC(=O)[C@H](CC(C)C)NC(=O)[C@H](Cc1ccc(O)cc1)NC(=O)[C@H](CCCCN)NC(=O)[C@H](CO)NC(=O)[C@H](Cc1ccc(O)cc1)NC(=O)[C@H](CC(=O)O)NC(=O)[C@H](CO)NC(=O)[C@@H](NC(=O)[C@H](Cc1ccccc1)NC(=O)[C@@H](NC(=O)CNC(=O)[C@H](Cc1c[nH]cn1)NC(=O)[C@H](CO)NC(=O)CCc1c[nH]cn1)[C@@H](C)O)[C@@H](C)O)C(C)C)C(=O)N[C@@H](Cc1c[nH]c2ccccc12)C(=O)N[C@@H](CC(C)C)C(=O)N[C@@H](CC(C)C)C(=O)N[C@@H](CO)C(=O)N[C@H](C(=O)O)[C@@H](C)O)C(=O)O)C(=O)O)C(=O)O)C(=O)O
notes: as for B1

How the values were obtained:
human glucagon receptor [1] = molecular target: T1, human glucagon receptor (human, UniProt P47871 26-477); test: cell-based or functional assay
T1 sequence (P47871 26-477): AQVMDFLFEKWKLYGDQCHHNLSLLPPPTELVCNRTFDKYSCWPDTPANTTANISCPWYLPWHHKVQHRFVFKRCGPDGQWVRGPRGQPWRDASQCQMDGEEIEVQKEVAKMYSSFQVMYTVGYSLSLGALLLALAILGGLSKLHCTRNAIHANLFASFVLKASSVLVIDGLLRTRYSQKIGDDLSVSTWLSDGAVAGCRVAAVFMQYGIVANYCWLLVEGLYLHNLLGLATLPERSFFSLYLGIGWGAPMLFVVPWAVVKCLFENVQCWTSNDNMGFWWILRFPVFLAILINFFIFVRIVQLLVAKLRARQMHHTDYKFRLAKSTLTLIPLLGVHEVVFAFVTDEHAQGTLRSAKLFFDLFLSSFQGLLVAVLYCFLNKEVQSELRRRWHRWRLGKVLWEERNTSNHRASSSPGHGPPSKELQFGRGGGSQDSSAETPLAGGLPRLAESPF

human glucagon receptor [2] = molecular target: T1, human glucagon receptor; test: displacement of 125I-glucagon from BHK membranes with human glucagon receptor (SPA), Assay (II)(b)

Binder | EC50 hGlucagonR (pM), CRE luciferase reporter in BHK cells (human glucagon receptor [1]) [pM] | IC50 (human glucagon receptor [2]) [nM]
B1 | 1 | 0.2
B2 | 6 | 2.6
B3 | 3 | 0.5
